Experimental data taken from the Human Domainome abundance scans (Beltran et al. 2025).
± gives the uncertainty stated by the source.

B1: Gamma-crystallin C, residues 4 to 79; numbered along this chain, P07315 (parent)
chain: ITFYEDRAFQGRSYETTTDCPNLQPYFSRCNSIRVESGCWMLYERPNYQGQQYLLRRGEYPDYQQWMGLSDSIRSC

Variants of: B1
Experiment: abundance fitness (aPCA) (normalised: wild type 0, dead -1); higher = more abundant; growth selection in yeast, the domain comes from the species named
Conditions: Homo sapiens

Variant	abundance fitness
ITFYEDRAFQGRSYETTTDCPNLQPYFSRCNSIRVESGCWMLYERPNYQGQQYLSRRGEYPDYQQWMGLSDSIRSC [L55S]	-0.701 ± 0.15
ITFYEDRAFQGRSYETTTDCPNLQPYFSRCNSIRVESGCWMLYERPNYQGQQYLCRRGEYPDYQQWMGLSDSIRSC [L55C]	-0.178 ± 0.31
ITFYEDRAFQGRSYETTTDCPNLQPYFSRCNSIRVESGCWMLYERPNYQGQQYLYRRGEYPDYQQWMGLSDSIRSC [L55Y]	-0.04 ± 0.13
ITFPEDRAFQGRSYETTTDCPNLQPYFSRCNSIRVESGCWMLYERPNYQGQQYLLRRGEYPDYQQWMGLSDSIRSC [Y4P]	-1.12 ± 0.34
ITFYEDRAFQGRSYETTTDCPNLQPYFSRCNSIRGESGCWMLYERPNYQGQQYLLRRGEYPDYQQWMGLSDSIRSC [V35G]	-1.01 ± 0.16
ITFYEDRAFQGRSYETTTDCPNLQPYFSRCNSIRTESGCWMLYERPNYQGQQYLLRRGEYPDYQQWMGLSDSIRSC [V35T]	-0.081 ± 0.11
ITFYEDRAFQGRSYETTTDCPNLQPYFSRCNSIRVESGCWMLYERPNYQGQQYLLRRGEYPDYYQWMGLSDSIRSC [Q64Y]	-0.182 ± 0.14
ITFYEDRAFQGRSYETTTDCPNLQPYFSRCNSIRVESGCWMLYERPNYQGQQYLLRRGEYPDRQQWMGLSDSIRSC [Y63R]	-0.049 ± 0.05
ITFYEDRAFQGRSYETTTDCPNLQCYFSRCNSIRVESGCWMLYERPNYQGQQYLLRRGEYPDYQQWMGLSDSIRSC [P25C]	0.227 ± 0.19
ITFYEDRAFQGRSYETTTDCPNLQDYFSRCNSIRVESGCWMLYERPNYQGQQYLLRRGEYPDYQQWMGLSDSIRSC [P25D]	0.323 ± 0.22
ITFYEDRAFQGRSYETTTDCPNLQPYFSRCNSIRVESGCPMLYERPNYQGQQYLLRRGEYPDYQQWMGLSDSIRSC [W40P]	-0.939 ± 0.27
ITFYEDRAFQGRSYETTTDCPNLQPYFSRCNSIRVESGCCMLYERPNYQGQQYLLRRGEYPDYQQWMGLSDSIRSC [W40C]	0.03 ± 0.2
ITFYEDRAFQGRSYETTTDCPNLQPYFSRCNSIRVESGCTMLYERPNYQGQQYLLRRGEYPDYQQWMGLSDSIRSC [W40T]	-0.43 ± 0.17
ITFYEDRAVQGRSYETTTDCPNLQPYFSRCNSIRVESGCWMLYERPNYQGQQYLLRRGEYPDYQQWMGLSDSIRSC [F9V]	-0.628 ± 0.24
ITFYEDRASQGRSYETTTDCPNLQPYFSRCNSIRVESGCWMLYERPNYQGQQYLLRRGEYPDYQQWMGLSDSIRSC [F9S]	-0.617 ± 0.18
ITFYEDRAFQGRSYETTTDCPNLQPYFFRCNSIRVESGCWMLYERPNYQGQQYLLRRGEYPDYQQWMGLSDSIRSC [S28F]	0.044 ± 0.1
ITFYEDRAFQGRSYETTTDCPNLQPYFWRCNSIRVESGCWMLYERPNYQGQQYLLRRGEYPDYQQWMGLSDSIRSC [S28W]	-0.15 ± 0.11
ITFYEDRAFQGRSYETRTDCPNLQPYFSRCNSIRVESGCWMLYERPNYQGQQYLLRRGEYPDYQQWMGLSDSIRSC [T17R]	0.034 ± 0.11

Variant	abundance fitness
ITFYEDRAFQGRSYETLTDCPNLQPYFSRCNSIRVESGCWMLYERPNYQGQQYLLRRGEYPDYQQWMGLSDSIRSC [T17L]	-0.089 ± 0.084
ITFYEDRAFQGRSYETTTDCPNLQPYFSRCNSIRVESGCWMLYERPNYQGQQYLLRRGEYPDYQQWMGLSVSIRSC [D71V]	-0.004 ± 0.059
ITFYEDRAFQGRSYETTTDCPNLQPYFSRCNSIRVESGCWMLYERPNYQGQQYLLRRGEYPDYQQWMLLSDSIRSC [G68L]	-0.027 ± 0.048
MTFYEDRAFQGRSYETTTDCPNLQPYFSRCNSIRVESGCWMLYERPNYQGQQYLLRRGEYPDYQQWMGLSDSIRSC [I1M]	-0.291 ± 0.16
ITFYEDRAFQGRSYETTTDCPNLQPYFSRCNSIRVESGCWDLYERPNYQGQQYLLRRGEYPDYQQWMGLSDSIRSC [M41D]	-0.133 ± 0.22
ITFYEDRAFQGRSYETTTDCPNLQPYFSRCNSIRVESGCWCLYERPNYQGQQYLLRRGEYPDYQQWMGLSDSIRSC [M41C]	-0.041 ± 0.11
ITFYEDRAFQGRSYETTTDCPNLQPYFSRCNSIRVESGCWMLYTRPNYQGQQYLLRRGEYPDYQQWMGLSDSIRSC [E44T]	-0.206 ± 0.14
ITFYEDRAFQGRSYETTTDCPNLQPYFSRCNSIRVESGCWMLYMRPNYQGQQYLLRRGEYPDYQQWMGLSDSIRSC [E44M]	0.355 ± 0.29
ITFYEDRAFQGRSYETTTDCSNLQPYFSRCNSIRVESGCWMLYERPNYQGQQYLLRRGEYPDYQQWMGLSDSIRSC [P21S]	-0.19 ± 0.083
ITFYEDRAFQGRSYETTDDCPNLQPYFSRCNSIRVESGCWMLYERPNYQGQQYLLRRGEYPDYQQWMGLSDSIRSC [T18D]	0.169 ± 0.44
ITFYEDRAFQGRSYETTTDCPNLQPYFSRCNSIRVESGCWMLYERPNYQGQQYLLRRGEYPDYQQWMGLSDSIGSC [R74G]	0.022 ± 0.044
ITFYEDRAFQGRSYETTTDCPNLQPYFSRCNSIRVRSGCWMLYERPNYQGQQYLLRRGEYPDYQQWMGLSDSIRSC [E36R]	-0.069 ± 0.075
ITFYEDRAFQGRSYETTTDCPNLQPYFSRCNSIRVESGCWMLYERPNYQGQQYLLRRGEYPDYQQWMGLSDSIRSV [C76V]	0.061 ± 0.073
ITFYEDRAFQGRSYETTTDCPNLQPYFSRCNSIRVESGCWMLYERPNYQGQQMLLRRGEYPDYQQWMGLSDSIRSC [Y53M]	-0.005 ± 0.16
ITFYEDRAFQGRSYETTTDCPNLQPYFSRCNSIRVESGCWMLYERPNYQGQQFLLRRGEYPDYQQWMGLSDSIRSC [Y53F]	-0.015 ± 0.16
ITFYEDRAFQGRSYETTTDCPNLQPYFSRCNSIRVESGCWMLYERPNYQGQQYLLRRGEYPDYQQWMGLFDSIRSC [S70F]	-0.053 ± 0.079
ITFYEDRAFQGRSYETTTDCPNLQPYFSWCNSIRVESGCWMLYERPNYQGQQYLLRRGEYPDYQQWMGLSDSIRSC [R29W]	-0.053 ± 0.1
ITFYEDRAFQYRSYETTTDCPNLQPYFSRCNSIRVESGCWMLYERPNYQGQQYLLRRGEYPDYQQWMGLSDSIRSC [G11Y]	-0.591 ± 0.19
